In patent publication US9187525B2, “Methods of treating ophthalmic diseases using NPR-B agonists” (Shire Orphan Therapies GmbH, dated 2015):
Numbered stars: 1 amine (or outer) side, 2 acyl side, 3 side chain; on linkers, the order of the positions; unused ones are H or OH. Square brackets hold non-standard residues; d marks the D form. Ends that are not written are not given here. * marks the point of attachment. Pro(trans-4-NH2) = O=C([C@@H]1C[C@@H](N[*:3])CN1[*:1])[*:2]; 1381 = (S)-3,3-dimethylbutan-2-amine, C[C@H](N*)C(C)(C)C; Sni = (S)-nipecotic acid, O=C([C@H]1CCCN([*:1])C1)[*:2]; 5121 = 1-propyl-butyl-amine, CCCC(CCC)N*; dGly(2-thienyl) = N[C@@H](C(=O)O)c1cccs1; Gly(2-thienyl) = N[C@H](C(=O)O)c1cccs1; Butanoyl(4-cHex) = O=C(CCCC1CCCCC1)*; NMeR = CN[C@@H](CCCNC(=N)N)C(=O)O; dDap(Me2) = CN(C)C[C@@H](N)C(=O)O; Hyp = O=C(O)[C@@H]1C[C@@H](O)CN1; NMeF = CN[C@@H](Cc1ccccc1)C(=O)O; NMeI = CC[C@H](C)[C@H](NC)C(=O)O; NMeD = CN[C@@H](CC(=O)O)C(=O)O; NMeL = CN[C@@H](CC(C)C)C(=O)O; BB725 = not defined here; Octanoyl = CCCCCCCC(=O)*; 1860 = not defined here; 1906 = not defined here; 2906 = cyclobutyl-amine; Api = NC1(C(=O)O)CCNCC1; Che = not defined here; Occ = octanoic acid

T1: natriuretic peptide receptor-B (human)
T1 chain: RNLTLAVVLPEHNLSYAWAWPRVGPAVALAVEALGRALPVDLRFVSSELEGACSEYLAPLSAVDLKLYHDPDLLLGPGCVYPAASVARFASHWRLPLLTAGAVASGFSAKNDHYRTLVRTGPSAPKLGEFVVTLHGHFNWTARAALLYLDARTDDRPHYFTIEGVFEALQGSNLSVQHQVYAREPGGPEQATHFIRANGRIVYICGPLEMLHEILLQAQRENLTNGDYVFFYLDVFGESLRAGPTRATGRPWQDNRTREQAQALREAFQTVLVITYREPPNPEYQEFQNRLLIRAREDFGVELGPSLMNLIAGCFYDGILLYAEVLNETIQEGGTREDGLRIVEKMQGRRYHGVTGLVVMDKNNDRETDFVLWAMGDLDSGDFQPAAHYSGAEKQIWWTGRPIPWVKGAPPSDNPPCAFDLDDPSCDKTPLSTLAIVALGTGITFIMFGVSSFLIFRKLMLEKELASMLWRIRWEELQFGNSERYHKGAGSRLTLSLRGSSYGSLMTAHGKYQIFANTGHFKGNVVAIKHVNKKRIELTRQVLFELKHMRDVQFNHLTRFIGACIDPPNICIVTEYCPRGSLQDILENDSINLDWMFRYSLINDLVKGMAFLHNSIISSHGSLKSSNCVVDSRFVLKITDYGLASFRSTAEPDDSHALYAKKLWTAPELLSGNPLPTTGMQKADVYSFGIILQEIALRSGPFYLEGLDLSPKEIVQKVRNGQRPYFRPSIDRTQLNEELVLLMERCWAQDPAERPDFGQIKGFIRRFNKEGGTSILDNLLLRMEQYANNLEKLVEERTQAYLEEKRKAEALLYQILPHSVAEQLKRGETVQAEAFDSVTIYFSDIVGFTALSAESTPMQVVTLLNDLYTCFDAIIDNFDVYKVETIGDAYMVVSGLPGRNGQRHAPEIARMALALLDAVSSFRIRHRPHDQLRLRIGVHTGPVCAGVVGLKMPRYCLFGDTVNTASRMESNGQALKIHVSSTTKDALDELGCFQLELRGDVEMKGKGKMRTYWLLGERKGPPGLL

B1: JAL-1508 (peptide)
peptide: [Occ][Sni]FLL[Hyp][NMeL]DP[2906]
modifications: not fully specified (residue 4); printed as Occ-Sni-Phe-leu-Leu-Hyp-Nml-Asp-Pro-2906
B2: JAL-1509 (peptide)
peptide: [Occ][Sni]FLL[Hyp][NMeL]DP[1381]
modifications: not fully specified (residue 4); printed as Occ-Sni-Phe-leu-Leu-Hyp-Nml-Asp-Pro-1381
B3: JAL-1509_02 (peptide)
peptide: [Occ][Sni]FLL[Hyp][NMeL]DP[1381]
modifications: not fully specified (residue 4); printed as Occ-Sni-Phe-leu-Leu-Hyp-Nml-Asp-Pro-1381
B4: JAL-1510 (peptide)
peptide: [Occ][Sni]FLL[Hyp][NMeL]DP[1860]
modifications: not fully specified (residue 4); printed as Occ-Sni-Phe-leu-Leu-Hyp-Nml-Asp-Pro-1860; reading uncertain
B5: JAL-1511 (peptide)
peptide: [Occ][Sni]FLL[Hyp][NMeL]DP[1906]
modifications: not fully specified (residue 4); printed as Occ-Sni-Phe-leu-Leu-Hyp-Nml-Asp-Pro-1906; reading uncertain
B6: JAL-1512_02 (peptide)
peptide: [Occ][Sni]FLL[Hyp][NMeL]DP[Che]
modifications: not fully specified (residue 4); printed as Occ-Sni-Phe-leu-Leu-Hyp-Nml-Asp-Pro-Che; reading uncertain
B7: JAL-1513 (peptide)
peptide: [Occ][Sni]FLL[Hyp][NMeL]DP[5121]
modifications: not fully specified (residue 4); printed as Occ-Sni-Phe-leu-Leu-Hyp-Nml-Asp-Pro-5121
B8: JAL-1553 (peptide)
peptide: [Occ][Sni]FAL[Hyp][NMeL]DRI-NH2
B9: JAL-1554 (peptide)
peptide: [Occ][Sni]FLL[Hyp][NMeL]DRI-NH2
B10: JAL-1555 (peptide)
peptide: [Occ][Sni]F[Api]L[Hyp][NMeL]DRI-NH2
B11: JAL-0693 (peptide)
peptide: {Butanoyl(4-cHex)}-[dA][dA]FGLKLDRI-NH2
B12: JAL-1556 (peptide)
peptide: [Occ][dA]F[dL]L[Hyp][NMeL][BB725]RI-NH2
modifications: reading uncertain; also: printed as Occ-ala-Phe-leu-Leu-Hyp-Nml-(BB725)-Arg-Ile-NH2
B13: JAL-1557 (peptide)
peptide: [Occ][dA]F[dL]L[Hyp][NMeL][Gly(2-thienyl)]RI-NH2
B14: JAL-1558 (peptide)
peptide: [Occ][dA]F[dL]L[Hyp][NMeL][dGly(2-thienyl)]RI-NH2
B15: JAL-1559 (peptide)
peptide: [Occ][Sni]F[dL]L[Pro(trans-4-NH2)][NMeL]DPI-NH2
B16: JAL-1560 (peptide)
peptide: [Occ][Sni]FGL[Pro(trans-4-NH2)][NMeL]DPI-NH2
B17: JAL-1561 (peptide)
peptide: [Occ][Sni]F[Api]L[Pro(trans-4-NH2)][NMeL]DPI-NH2
B18: JAL-1568 (peptide)
peptide: [Occ][Sni]F[dL]L[Pro(trans-4-NH2)][NMeL]DP[Che]
modifications: reading uncertain; also: printed as Occ-Sni-Phe-leu-Leu-Tap-Nml-Asp-Pro-Che
B19: JAL-1569 (peptide)
peptide: [Occ][Sni]F[dL]L[Hyp][NMeL]DR[NMeI]-NH2
B20: JAL-1570 (peptide)
peptide: [Occ][Sni]F[dL]L[Hyp][NMeL]D[NMeR]I-NH2
B21: JAL-1572 (peptide)
peptide: [Occ][Sni]F[dL][NMeL][Hyp][NMeL]DRI-NH2
B22: JAL-0694 (peptide)
peptide: Octanoyl-[dP]FGLKLDRI-NH2
B23: JAL-1573 (peptide)
peptide: [Occ][Sni][NMeF][dL]L[Hyp][NMeL]DRI-NH2
B24: JAL-1574 (peptide)
peptide: [Occ]XFXLXXDRI-NH2
modifications: not fully specified (residues 2, 4, 6, 7); printed as Occ-Sni-Phe-nml-Leu-Hyp-Nml-Asp-Arg-Ile-NH2
B25: JAL-1575 (peptide)
peptide: [Occ][Sni]F[dDap(Me2)]L[Hyp][NMeL]DR[NMeI]-NH2
B26: JAL-1576 (peptide)
peptide: [Occ][Sni]F[dDap(Me2)]L[Hyp][NMeL]D[NMeR]I-NH2
B27: JAL-1577 (peptide)
peptide: [Occ][Sni]F[dDap(Me2)]L[Hyp][NMeL][NMeD]RI-NH2
B28: JAL-1578 (peptide)
peptide: [Occ][Sni]F[dDap(Me2)][NMeL][Hyp][NMeL]DRI-NH2
B29: JAL-1579 (peptide)
peptide: [Occ][Sni][NMeF][dDap(Me2)]L[Hyp][NMeL]DRI-NH2
B30: JAL-1580 (peptide)
peptide: [Occ][Sni]F[dDap(Me2)]L[Hyp][NMeL]DPI-NH2
B31: JAL-1594 (peptide)
peptide: Octanoyl-[Sni]FLL[Hyp][NMeL]VP[Che]
modifications: not fully specified (some residues); printed as Occ-Sni-Phe-leu-Leu-Hyp-Nml-Val-Pro-Che; reading uncertain

Biological target: T1, natriuretic peptide receptor-B
Assay: cell-based or functional assay

B1 and B2 cannot be ordered by “EC50 group, cGMP in GTM-3 cells” value: at most 15 µM for the first, at most 5 µM for the second.

B3 and B4 cannot be ordered by “EC50 group, cGMP in GTM-3 cells” value: at most 5 µM for the first, at most 1 µM for the second.

B5 and B6 cannot be ordered by “EC50 group, cGMP in GTM-3 cells” value: at most 5 µM for the first, at most 1 µM for the second.

B7 and B8 cannot be ordered by “EC50 group, cGMP in GTM-3 cells” value: at most 15 µM for the first, at most 15 µM for the second.

B9 and B10 cannot be ordered by “EC50 group, cGMP in GTM-3 cells” value: at most 5 µM for the first, at most 1 µM for the second.

B11 and B12 cannot be ordered by “EC50 group, cGMP in GTM-3 cells” value: at most 15 µM for the first, at most 1 µM for the second.

B13 and B14 cannot be ordered by “EC50 group, cGMP in GTM-3 cells” value: at most 15 µM for the first, at most 1 µM for the second.

B15 and B16 cannot be ordered by “EC50 group, cGMP in GTM-3 cells” value: at most 1 µM for the first, at most 5 µM for the second.

B17 and B18 cannot be ordered by “EC50 group, cGMP in GTM-3 cells” value: at most 1 µM for the first, at most 1 µM for the second.

B19 and B20 cannot be ordered by “EC50 group, cGMP in GTM-3 cells” value: at most 1 µM for the first, at most 5 µM for the second.

B21 and B22 cannot be ordered by “EC50 group, cGMP in GTM-3 cells” value: at most 15 µM for the first, at most 15 µM for the second.

B23 and B24 cannot be ordered by “EC50 group, cGMP in GTM-3 cells” value: at most 1 µM for the first, at most 15 µM for the second.

B25 and B26 cannot be ordered by “EC50 group, cGMP in GTM-3 cells” value: at most 15 µM for the first, at most 1 µM for the second.

B27 and B28 cannot be ordered by “EC50 group, cGMP in GTM-3 cells” value: at most 15 µM for the first, at most 5 µM for the second.

B29 and B30 cannot be ordered by “EC50 group, cGMP in GTM-3 cells” value: at most 1 µM for the first, at most 1 µM for the second.

For B31, the “EC50 group, cGMP in GTM-3 cells” value was at most 5 µM.
